The series has as its target [2,3-3H]-L-proline-labeled procollagen substrate.

Entries after “also recorded” stand apart in the source; their conditions may differ.

The source of these data is patent publication US20050277167.

B1: chicken prolyl 3-hydroxylase 1 (chicken P3H1) (protein)
chain: AGPPGPLGPPEHSEPPLPAEPPDALFAAGAEAYARGDWPAVVLQMERALRARAAIRARSVRCRLRCANATAVVPTDGLEPTLHDLLFFRGLLRRAACLRGCGPTQPSRYRLGEELEREFRKRSPYNYLQVAYFKINKVAKAVAAAHTFFVANPEHVEMKQNLEYYQMMAGVRESDFADLEARPHMTEFRLGVRFYSEEQPAAAVLHLEKALQEYFVADTECRALCEGPYDYEGYNYLEYNADLFQAMTDHYMQVLSCKQGCVTELASQPGREKPLEDFLPSHFNYLQFAYYNNGNYEKAIECAKTYLLFFPNDEVMNQNLAYYTAVLGEDLARPIEPRKEIQAYRQRSLMEKELLFFSYDVFGIPFVDPDTWTPEEVIPKRLREKQKVERETAARISEEIGNLMKEIETLVEEKAKESAEMSKFIREGGPLVYEGASVTMNSKSLNGSQRVVVDGVLSAEECRELQRLTNAAASAGDGYRGKTSPHTPSETFYGVTVLKALKLGQEGKVPLQSAHLYYNVTEKVRHMMESYFRLEVPLHFSYSHLVCRTAIDEKQEGRSDNSHEVHVDNCILNAEALVCVKEPPAYTFRDYSAILYLNGDFEGGAFYFTELDAKTQTAEVQPQCGRAVGFSSGSENPHGVKAVTKGQRCAIALWFTLDPRHSERERVQADDLVKMLFRTEEVDLLQETSAEQEPTAATSTAGLHAAGKDEL
With B1, the “Km; prolyl 3-hydroxylase activity as release of tritiated water (THO), double reciprocal plot” value was “a Km of 179 µl of substrate per 2 mls reaction volume; also recorded: or 89.5 µl of substrate per ml”.
